# T1: human EphA3 (Homo sapiens, UniProt P29320)
# T1 construct: a protein of the extracellular region of each human Eph receptor fused with the SEAP protein and the His tag; made in house; host or cells: Expi293F cells (culture supernatant)
# T1 sequence (P29320 21-541 limits assumed): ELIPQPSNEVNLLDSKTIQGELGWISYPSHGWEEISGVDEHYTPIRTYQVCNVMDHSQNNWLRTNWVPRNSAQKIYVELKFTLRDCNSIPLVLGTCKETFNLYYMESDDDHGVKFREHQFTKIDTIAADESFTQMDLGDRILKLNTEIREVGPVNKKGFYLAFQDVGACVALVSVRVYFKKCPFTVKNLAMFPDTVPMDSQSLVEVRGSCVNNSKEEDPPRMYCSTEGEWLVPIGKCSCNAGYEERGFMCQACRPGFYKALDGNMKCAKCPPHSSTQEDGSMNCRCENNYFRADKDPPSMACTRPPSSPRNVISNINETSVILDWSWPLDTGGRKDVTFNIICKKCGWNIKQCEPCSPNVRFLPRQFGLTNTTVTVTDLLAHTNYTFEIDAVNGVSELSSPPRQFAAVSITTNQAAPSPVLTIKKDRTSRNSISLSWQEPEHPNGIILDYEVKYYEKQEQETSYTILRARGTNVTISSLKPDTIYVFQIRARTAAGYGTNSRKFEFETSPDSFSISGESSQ
# T2: human EphA6 (Homo sapiens, UniProt Q9UF33)
# T2 construct: a protein of the extracellular region of each human Eph receptor fused with the SEAP protein and the His tag; made in house; host or cells: Expi293F cells (culture supernatant)
# T2 sequence (Q9UF33 23-550 limits assumed): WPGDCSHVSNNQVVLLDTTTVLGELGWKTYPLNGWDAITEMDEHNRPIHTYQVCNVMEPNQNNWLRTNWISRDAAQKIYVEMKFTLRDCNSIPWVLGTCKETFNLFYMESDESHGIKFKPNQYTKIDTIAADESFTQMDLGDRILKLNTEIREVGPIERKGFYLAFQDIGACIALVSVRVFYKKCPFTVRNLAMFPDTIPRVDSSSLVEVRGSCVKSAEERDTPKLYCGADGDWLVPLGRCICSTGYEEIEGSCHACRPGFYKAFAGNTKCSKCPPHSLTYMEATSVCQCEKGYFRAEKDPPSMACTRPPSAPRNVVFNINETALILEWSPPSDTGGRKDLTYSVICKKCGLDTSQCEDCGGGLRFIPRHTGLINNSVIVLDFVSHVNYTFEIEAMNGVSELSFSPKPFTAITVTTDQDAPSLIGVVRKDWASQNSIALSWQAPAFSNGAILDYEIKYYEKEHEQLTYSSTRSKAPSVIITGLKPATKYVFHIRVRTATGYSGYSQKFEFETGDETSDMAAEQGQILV
# T3: human EphA7 (Homo sapiens, UniProt Q15375)
# T3 construct: a protein of the extracellular region of each human Eph receptor fused with the SEAP protein and the His tag; made in house; host or cells: Expi293F cells (culture supernatant)
# T3 sequence (Q15375 28-555 limits assumed): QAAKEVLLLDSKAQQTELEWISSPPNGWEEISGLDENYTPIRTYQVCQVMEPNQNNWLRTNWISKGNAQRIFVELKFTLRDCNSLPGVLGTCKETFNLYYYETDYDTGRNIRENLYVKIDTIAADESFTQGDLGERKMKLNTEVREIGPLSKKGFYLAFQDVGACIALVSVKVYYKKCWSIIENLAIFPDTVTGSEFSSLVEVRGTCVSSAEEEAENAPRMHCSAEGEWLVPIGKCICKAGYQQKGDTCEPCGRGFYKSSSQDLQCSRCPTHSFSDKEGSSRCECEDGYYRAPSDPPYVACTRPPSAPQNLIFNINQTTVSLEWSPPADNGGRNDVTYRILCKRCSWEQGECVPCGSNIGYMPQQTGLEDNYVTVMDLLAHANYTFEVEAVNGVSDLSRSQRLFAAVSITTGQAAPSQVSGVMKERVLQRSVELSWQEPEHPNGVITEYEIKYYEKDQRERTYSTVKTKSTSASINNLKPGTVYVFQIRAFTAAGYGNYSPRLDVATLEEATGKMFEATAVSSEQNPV
# What was measured:
# Assay in all cases: Selectivity ELISA of humanized antibodies for human Eph receptor
# Assay type in all cases: binding
# Conditions in all cases: coated protein 1 nM
# human EphA3 = molecular target: T1, human EphA3
# Summary of the method: (§1)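 Capture ELISA: anti-6-His coat, 1% BlockAce block, Eph ECD-SEAP-His (1 nM final, Expi293F supernatant) 1 h RT, humanized Ab 1 h RT, HRP anti-IgG 1 h RT, TMB, H2SO4 stop, A450.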
# human EphA6 = molecular target: T2, human EphA6
# Summary of the method: as §1
# human EphA7 = molecular target: T3, human EphA7
# Summary of the method: as §1
Molecule,"hEphA3-SEAP-: absorbance at 450 nm, percentage with respect to hEphA4-SEAP-His as 100% (human EphA3)","hEphA6-SEAP-: absorbance at 450 nm, percentage with respect to hEphA4-SEAP-His as 100% (human EphA6)","hEphA7-SEAP-: absorbance at 450 nm, percentage with respect to hEphA4-SEAP-His as 100% (human EphA7)"
"91 (antibody, V domains shown, constant regions without entry; synthetic humanized antibody light chain variable region sequence; synthetic humanized antibody heavy chain variable region sequence) VL: DIQMTQSPSSLSASVGDRVTITCRASENIYRNLAWYQQKPGKAPQLLLYAATNLADGVPSRFSGSGSGTDYTLTISSLQPEDFATYYCQHFWGTPWTFGQGTKVEIK VH: QVQLVQSGSELKKPGASVKVSCKASGYTFTDYSMHWVRQAPGQGLKWMGWINTETGEPTYADDFKGRFVFSLDTSVSTAYLQISSLKAEDTAVYYCARIPLYYYGSRYWYFDVWGQGTTVTVSS",6.6%,8.8%,5.6%
"93 (antibody, V domains shown, constant regions without entry; synthetic humanized antibody light chain variable region sequence; synthetic humanized antibody heavy chain variable region sequence) VL: EIVMTQSPATLSVSPGERATLSCRASENIYRNLAWYQQKPGQSPRLLIYAATNLADGIPARFSGSGSGTEYTLTISSLQSEDFAVYYCQHFWGTPWTFGQGTKVEIK VH: QVQLVQSGSELKKPGASVKVSCKASGYTFTDYSMHWVRQAPGQGLEWMGWINTETGEPTYAQGFTGRFVFSLDTSVSTAYLQISSLKAEDTAVYYCARIPLYYYGSRYWYFDVWGQGTTVTVSS",5.1%,7.1%,4.9%
"94 (antibody, V domains shown, constant regions without entry; synthetic humanized antibody light chain variable region sequence; synthetic humanized antibody heavy chain variable region sequence) VL: EIVMTQSPATLSVSPGERATLSCRASENIYRNLAWYQQKPGQSPRLLIYAATNLADGIPARFSGSGSGTEYTLTISSLQSEDFAVYYCQHFWGTPWTFGQGTKVEIK VH: QVQLVQSGSELKKPGASVKVSCKASGYTFTDYSMHWVRQAPGQGLKWMGWINTETGEPTYAQGFTGRFVFSLDTSVSTAYLQISSLKAEDTAVYYCARIPLYYYGSRYWYFDVWGQGTTVTVSS",6.8%,8.6%,6.1%
"71 (antibody, V domains shown, synthetic humanized antibody heavy chain variable region sequence; synthetic humanized antibody light chain variable region sequence) VH: QIQLVQSGSELKKPGASVKVSCKASGYTFTDYSMHWVRQAPGQGLKWMGWINTETGEPTYAQGFTGRFVFSLDTSVSTAYLQISSLKAEDTAVYYCARIPLYYYGSRYWYFDVWGQGTTVTVSS VL: EIVMTQSPATLSVSPGERATLSCRASENIYRNLAWYQQKPGQSPRLLIYAATNLADGIPARFSGSGSGTEYTLTISSLQSEDFAVYYCQHFWGTPWTFGQGTKVEIK",5.6%,9.2%,5.2%
"92 (antibody, V domains shown, constant regions without entry; synthetic humanized antibody light chain variable region sequence; synthetic humanized antibody heavy chain variable region sequence) VL: DIQMTQSPSSLSASVGDRVTITCRASENIYRNLAWYQQKPGKAPQLLLYAATNLADGVPSRFSGSGSGTDYTLTISSLQPEDFATYYCQHFWGTPWTFGQGTKVEIK VH: QIQLVQSGSELKKPGASVKVSCKASGYTFTDYSMHWVRQAPGQGLKWMGWINTETGEPTYADDFKGRFVFSLDTSVSTAYLQISSLKAEDTAVYYCARIPLYYYGSRYWYFDVWGQGTTVTVSS",6.5%,9.6%,6.4%
"73 (antibody, V domains shown, synthetic humanized antibody heavy chain variable region sequence; synthetic humanized antibody light chain variable region sequence) VH: QIQLVQSGSELKKPGASVKVSCKASGYTFTDYSMHWVRQAPGQGLKWMGWINTETGEPTYADDFKGRFVFSLDTSVSTAYLQISSLKAEDTAVYYCARIPLYYYGSRYWYFDVWGQGTTVTVSS VL: EIVMTQSPATLSVSPGERATLSCRASENIYRNLAWYQQKPGQSPRLLIYAATNLADGIPARFSGSGSGTEYTLTISSLQSEDFAVYYCQHFWGTPWTFGQGTKVEIK",5.8%,7.4%,5.6%
"96 (antibody, V domains shown, constant regions without entry; synthetic humanized antibody light chain variable region sequence; synthetic humanized antibody heavy chain variable region sequence) VL: EIVMTQSPATLSVSPGERATLSCRASENIYRNLAWYQQKPGQSPRLLIYAATNLADGIPARFSGSGSGTEYTLTISSLQSEDFAVYYCQHFWGTPWTFGQGTKVEIK VH: QVQLVQSGSELKKPGASVKVSCKASGYTFTDYSMHWVRQAPGQGLKWMGWINTETGEPTYADDFKGRFVFSLDTSVSTAYLQISSLKAEDTAVYYCARIPLYYYGSRYWYFDVWGQGTTVTVSS",5.5%,9.8%,5.3%
"95 (antibody, V domains shown, constant regions without entry; synthetic humanized antibody light chain variable region sequence; synthetic humanized antibody heavy chain variable region sequence) VL: EIVMTQSPATLSVSPGERATLSCRASENIYRNLAWYQQKPGQSPRLLIYAATNLADGIPARFSGSGSGTEYTLTISSLQSEDFAVYYCQHFWGTPWTFGQGTKVEIK VH: QVQLVQSGSELKKPGASVKVSCKASGYTFTDYSMHWVRQAPGQGLEWMGWINTETGEPTYADDFKGRFVFSLDTSVSTAYLQISSLKAEDTAVYYCARIPLYYYGSRYWYFDVWGQGTTVTVSS",4.8%,7.0%,4.4%

# Source: US10428140B2, “Anti-EphA4 antibody” (EISAI R&D MANAGEMENT CO., LTD., priority 2015, dated 2019)
